Measurements: US20130059806A1 (REGENTS OF THE UNIVERSITY OF MICHIGAN, published 2013)

T1: TR4 (mouse, UniProt P49117 1-596)
T1 construct: Endogenous protein, immunoprecipitated or detected with a rabbit polyclonal antibody; also called NR2C2
T1 sequence (looked up): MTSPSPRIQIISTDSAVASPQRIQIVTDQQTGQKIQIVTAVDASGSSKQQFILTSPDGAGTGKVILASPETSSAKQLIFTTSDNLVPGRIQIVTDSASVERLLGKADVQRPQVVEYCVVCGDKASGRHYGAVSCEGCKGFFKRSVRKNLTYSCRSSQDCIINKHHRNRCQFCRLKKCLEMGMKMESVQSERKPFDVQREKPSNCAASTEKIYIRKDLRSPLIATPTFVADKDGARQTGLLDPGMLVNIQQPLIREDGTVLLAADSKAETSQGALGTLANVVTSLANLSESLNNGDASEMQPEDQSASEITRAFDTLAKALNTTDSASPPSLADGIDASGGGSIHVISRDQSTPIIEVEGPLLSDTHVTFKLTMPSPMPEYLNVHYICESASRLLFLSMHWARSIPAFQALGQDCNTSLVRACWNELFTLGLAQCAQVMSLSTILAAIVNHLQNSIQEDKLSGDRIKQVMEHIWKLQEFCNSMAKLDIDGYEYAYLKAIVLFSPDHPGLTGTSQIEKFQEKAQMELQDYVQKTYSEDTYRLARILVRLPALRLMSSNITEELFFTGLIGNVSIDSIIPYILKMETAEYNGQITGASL

B1: HDAC3 (enzyme, mouse, UniProt O88895 1-428, looked up)
chain: MAKTVAYFYDPDVGNFHYGAGHPMKPHRLALTHSLVLHYGLYKKMIVFKPYQASQHDMCRFHSEDYIDFLQRVSPTNMQGFTKSLNAFNVGDDCPVFPGLFEFCSRYTGASLQGATQLNNKICDIAINWAGGLHHAKKFEASGFCYVNDIVIGILELLKYHPRVLYIDIDIHHGDGVQEAFYLTDRVMTVSFHKYGNYFFPGTGDMYEVGAESGRYYCLNVPLRDGIDDQSYKHLFQPVISQVVDFYQPTCIVLQCGADSLGCDRLGCFNLSIRGHGECVEYVKSFNIPLLVLGGGGYTVRNVARCWTYETSLLVEEAISEELPYSEYFEYFAPDFTLHPDVSTRIENQNSRQYLDQIRQTIFENLKMLNHAPSVQIHDVPADLLTYDRTDEADAEERGPEENYSRPEAPNEFYDGDHDNDKESDVEI
B2: MTA2 (other, mouse, UniProt Q9R190 1-668, looked up)
chain: MAANMYRVGDYVYFENSSSNPYLVRRIEELNKTANGNVEAKVVCLFRRRDISSSLNSLADSNAREFEEESKQPGVSEQQRHQLKHRELFLSRQFESLPATHIRGKCSVTLLNETDILNQYLDKEDCFFYSLVFDPVQKTLLADQGEIRVGCKFQAEIPDRLAEGESDNRNQQKMEMKVWDPDNPLTDRQIDQFLVVARAVGTFARALDCSSSIRQPSLHMSAAAASRDITLFHAMDTLQRNGYDLAKAMSTLVPQGGPVLCRDEMEEWSASEAMLFEEALEKYGKDFNDIRQDFLPWKSLASIVQFYYMWKTTDRYIQQKRLKAAEADSKLKQVYIPTYTKPNPNQIISVGSKPGMNGAGFQKGLTCESCHTTQSAQWYAWGPPNMQCRLCASCWIYWKKYGGLKTPTQLEGAARGTTEPHSRGHLSRPEAQSLSPYTTSANRAKLLAKNRQTFLLQTTKLTRLARRMCRDLLQPRRAARRPYAPINANAIKAECSIRLPKAAKTPLKIHPLVRLPLATIVKDLVAQAPLKPKTPRGTKTPINRNQLTQNRGLGGIMVKRSYETMAGAGVPFSANGRPLASGIRSSSQPAAKRQKLNPADAPNPVVFVATKDTRALRKALTHLEMRRAARRPNLPLKVKPTLMTVRPPVPLPASSHPASTNEPIVLED
notes: also called MTA1/2 (with MTA1)
B3: MTA1 (other, mouse, UniProt Q8K4B0 1-715, looked up)
chain: MAANMYRVGDYVYFENSSSNPYLIRRIEELNKTANGNVEAKVVCFYRRRDISSSLIALADKHATLSVCYRAGPGADTGEEGEVEEEVENPEMVDLPEKLKHQLRHRELFLSRQLESLPATHIRGKCSVTLLNETESLKSYLEREDFFFYSLVYDPQQKTLLADKGEIRVGNRYQADITDLLKEGEEDGRDQSKLETKVWEAHNPLVDKQIDQFLVVARSVGTFARALDCSSSVRQPSLHMSAAAASRDITLFHAMDTLHKNIYDISKAISALVPQGGPVLCRDEMEEWSASEANLFEEALEKYGKDFTDIQQDFLPWKSLTSIIEYYYMWKTTDRYVQQKRLKAAEAESKLKQVYIPNYNKPNPNQISASSVKATVVNGTGTPGQSPGAGRACESCYTTQSYQWYSWGPPNMQCRLCASCWTYWKKYGGLKMPTRLDGERPGPNRNNMSPHGIPARSSGSPKFAMKTRQAFYLHTTKLTRIARRLCREILRPWHAARHPYMPINSAAIKAECTARLPEASQSPLVLKQVVRKPLEAVLRYLETHPRPPKPDPVKSSSSVLSSLTPAKSAPVINNGSPTILGKRSYEQHNGVDGNMKKRLLMPSRGLANHGQTRHMGPSRNLLLNGKSYPTKVRLIRGGSLPPVKRRRMNWIDAPDDVFYMATEETRKIRKLLSSSETKRAARRPYKPIALRQSQALPLRPPPPAPVNDEPIVIED
notes: also called MTA1/2 (with MTA2)
B4: transcriptional intermediary factor (TIF)-1beta (other, mouse, UniProt Q62318 2-834, looked up)
chain: AASAAATAAASAATAASAASGSPGSGEGSAGGEKRPAASSAAAASAAASSPAGGGGEAQELLEHCGVCRERLRPERDPRLLPCLHSACSACLGPATPAAANNSGDGGSAGDGAMVDCPVCKQQCYSKDIVENYFMRDSGSKASSDSQDANQCCTSCEDNAPATSYCVECSEPLCETCVEAHQRVKYTKDHTVRSTGPAKTRDGERTVYCNVHKHEPLVLFCESCDTLTCRDCQLNAHKDHQYQFLEDAVRNQRKLLASLVKRLGDKHATLQKNTKEVRSSIRQVSDVQKRVQVDVKMAILQIMKELNKRGRVLVNDAQKVTEGQQERLERQHWTMTKIQKHQEHILRFASWALESDNNTALLLSKKLIYFQLHRALKMIVDPVEPHGEMKFQWDLNAWTKSAEAFGKIVAERPGTNSTGPGPMAPPRAPGPLSKQGSGSSQPMEVQEGYGFGSDDPYSSAEPHVSGMKRSRSGEGEVSGLLRKVPRVSLERLDLDLTSDSQPPVFKVFPGSTTEDYNLIVIERGAAAAAAGQAGTVPPGAPGAPPLPGMAIVKEEETEAAIGAPPAAPEGPETKPVLMPLTEGPGAEGPRLASPSGSTSSGLEVVAPEVTSAPVSGPGILDDSATICRVCQKPGDLVMCNQCEFCFHLDCHLPALQDVPGEEWSCSLCHVLPDLKEEDGSLSLDGADSTGVVAKLSPANQRKCERVLLALFCHEPCRPLHQLATDSTFSMEQPGGTLDLTLIRARLQEKLSPPYSSPQEFAQDVGRMFKQFNKLTEDKADVQSIIGLQRFFETRMNDAFGDTKFSAVLVEPPPLNLPSAGLSSQELSGPGDGP
notes: also called TIF1β; TIF113
B5: TR2 (receptor, mouse, UniProt Q505F1 1-590, looked up)
chain: MATIEEIAHQIIDQQMGEIVTEQQTGQKIQIVTALDHSTQGKQFILANHEGSTPGKVFLTTPDAAGVNQLFFTSPDLSAPHLQLLTEKSPDQGPNKVFDLCVVCGDKASGRHYGAITCEGCKGFFKRSIRKNLVYSCRGSKDCVINKHHRNRCQYCRLQRCIAFGMKQDSVQCERKPIEVSREKSSNCAASTEKIYIRKDLRSPLAATPTFVTDSETARSAGLLDSGMFVNIHPSGIKTEPAMLMAPDKAESCQGDLSTLASVVTSLANLGKAKDLSHCGGDMPVVQSLRNGDTSFGAFHHDIQTNGDVSRAFDTLAKALTPGESSACQSPEEGMEGSPHLIAGEPSFVEKEGPLLSESHVAFRLTMPSPMPEYLNVHYIGESASRLLFLSMHWALSIPSFQALGQENSISLVKAYWNELFTLGLAQCWQVMNVATILATFVNCLHSSLQQDKMSPERRKSLMEHIFKLQEFCNSMVKLCIDGHEYAYLKAIVLFSPDHPGLENMELIERFQEKAYVEFQDYITRTYPDDTYRLSRLLLRLPALRLMNATITEELFFKGLIGNVRIDSVIPHILKMEPADYNSQIIGHSL
notes: Endogenous protein, immunoprecipitated or detected with a rabbit polyclonal antibody; also called NR2C1

Tests used:
[1] = target: B4; test: co-IP from untransfected MEL nuclear extract, immunoblot
Mi2β = target: T2, Mi2β (mouse, UniProt Q6PDQ2 1-1915); test: as above
T2 construct: also called Mi2beta; Mi213
T2 sequence (Q6PDQ2 whole entry): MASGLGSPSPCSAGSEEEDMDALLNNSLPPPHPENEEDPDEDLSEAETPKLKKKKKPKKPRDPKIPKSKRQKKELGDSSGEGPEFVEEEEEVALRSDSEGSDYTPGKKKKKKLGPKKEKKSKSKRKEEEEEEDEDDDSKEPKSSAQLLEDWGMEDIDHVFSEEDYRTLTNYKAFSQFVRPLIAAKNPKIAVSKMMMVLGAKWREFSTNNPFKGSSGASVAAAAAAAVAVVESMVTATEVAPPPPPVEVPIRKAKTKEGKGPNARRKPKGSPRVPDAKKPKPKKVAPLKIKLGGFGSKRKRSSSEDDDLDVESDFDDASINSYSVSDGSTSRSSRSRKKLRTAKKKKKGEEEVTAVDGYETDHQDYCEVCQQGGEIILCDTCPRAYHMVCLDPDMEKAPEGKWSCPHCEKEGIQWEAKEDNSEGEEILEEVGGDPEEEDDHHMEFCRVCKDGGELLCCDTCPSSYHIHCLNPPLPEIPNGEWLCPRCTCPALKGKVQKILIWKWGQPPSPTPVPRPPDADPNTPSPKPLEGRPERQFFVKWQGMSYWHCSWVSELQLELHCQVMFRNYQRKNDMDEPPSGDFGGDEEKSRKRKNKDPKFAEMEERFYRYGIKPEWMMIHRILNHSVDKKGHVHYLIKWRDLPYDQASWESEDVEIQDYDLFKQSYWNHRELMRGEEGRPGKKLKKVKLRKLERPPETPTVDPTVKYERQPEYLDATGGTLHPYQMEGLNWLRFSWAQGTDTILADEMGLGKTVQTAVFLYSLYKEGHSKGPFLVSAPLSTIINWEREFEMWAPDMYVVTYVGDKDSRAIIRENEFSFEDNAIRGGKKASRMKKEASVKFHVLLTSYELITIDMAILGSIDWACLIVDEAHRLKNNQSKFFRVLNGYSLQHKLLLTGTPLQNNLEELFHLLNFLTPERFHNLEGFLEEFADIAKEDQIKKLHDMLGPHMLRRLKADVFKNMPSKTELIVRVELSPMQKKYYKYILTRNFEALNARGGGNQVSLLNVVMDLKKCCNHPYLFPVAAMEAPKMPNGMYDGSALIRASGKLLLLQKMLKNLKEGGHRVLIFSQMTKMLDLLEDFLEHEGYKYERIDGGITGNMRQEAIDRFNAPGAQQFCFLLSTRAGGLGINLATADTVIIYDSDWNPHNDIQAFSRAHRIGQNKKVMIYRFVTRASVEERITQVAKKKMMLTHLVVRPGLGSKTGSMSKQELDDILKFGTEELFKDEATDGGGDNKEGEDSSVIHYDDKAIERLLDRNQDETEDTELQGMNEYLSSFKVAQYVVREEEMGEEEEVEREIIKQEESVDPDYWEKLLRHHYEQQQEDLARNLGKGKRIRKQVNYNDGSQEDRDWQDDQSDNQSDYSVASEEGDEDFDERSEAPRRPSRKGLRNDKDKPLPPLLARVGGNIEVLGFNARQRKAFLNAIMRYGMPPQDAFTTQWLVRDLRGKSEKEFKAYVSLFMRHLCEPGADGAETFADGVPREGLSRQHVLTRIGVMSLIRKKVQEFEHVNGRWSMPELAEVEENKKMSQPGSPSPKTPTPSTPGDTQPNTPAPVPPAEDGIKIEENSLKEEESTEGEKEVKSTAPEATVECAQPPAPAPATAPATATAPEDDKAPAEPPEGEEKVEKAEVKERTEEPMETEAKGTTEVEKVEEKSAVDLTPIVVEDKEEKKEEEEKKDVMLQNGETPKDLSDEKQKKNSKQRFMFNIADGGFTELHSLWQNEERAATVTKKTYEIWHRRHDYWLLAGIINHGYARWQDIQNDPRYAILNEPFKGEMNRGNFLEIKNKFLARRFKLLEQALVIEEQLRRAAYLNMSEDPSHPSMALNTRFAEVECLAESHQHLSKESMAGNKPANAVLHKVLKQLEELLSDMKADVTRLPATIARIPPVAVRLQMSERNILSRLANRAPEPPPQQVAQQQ

CoREST = CoREST (mouse, UniProt Q8CFE3 1-480); test: as above
CoREST, sequence (Q8CFE3 whole entry): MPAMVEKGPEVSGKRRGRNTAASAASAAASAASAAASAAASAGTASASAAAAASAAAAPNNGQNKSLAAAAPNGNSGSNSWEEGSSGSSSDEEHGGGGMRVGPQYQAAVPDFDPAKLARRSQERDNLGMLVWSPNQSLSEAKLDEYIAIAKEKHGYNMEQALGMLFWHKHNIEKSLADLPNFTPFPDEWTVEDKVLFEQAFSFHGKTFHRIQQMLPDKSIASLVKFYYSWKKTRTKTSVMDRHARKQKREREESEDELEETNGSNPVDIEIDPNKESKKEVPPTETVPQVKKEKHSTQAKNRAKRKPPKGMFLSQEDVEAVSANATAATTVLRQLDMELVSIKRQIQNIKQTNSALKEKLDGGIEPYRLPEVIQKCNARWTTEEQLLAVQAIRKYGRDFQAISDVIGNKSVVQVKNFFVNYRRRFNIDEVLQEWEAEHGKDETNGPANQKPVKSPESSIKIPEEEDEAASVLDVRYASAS

MTA1 = target: B3; test: as above
MTA2 = target: B2; test: as above
TR4 = target: T1, TR4; test: co-IP from untransfected MEL nuclear extract, immunoblot (summary)
Procedure: Nuclear extracts were prepared from untransfected, induced MEL cells and incubated with protein G beads coupled with antibodies against proteins shown at the top of the images, or with a control IgG; 150 μg of nuclear extract protein was used for each lane. Immunoprecipitates with the antibody-coupled beads, and 10% of the input (15 μg protein) were subjected to SDS-PAGE followed by immunoblotting with antibodies against proteins shown to the left of the images. For immunoprecipitation, antibodies against TR2, TR4, DNMT1, HDAC3, and TIF113 were used in the left panels.
Antibodies were coupled to Dynabeads protein G (Invitrogen) by incubating for 2 hr at 4° C. with rotation according to the manufacturer's instructions. The beads were then incubated with nuclear extracts (150 μg protein) prepared from untransfected MEL cells for 2 hr at 4° C. After washing the beads with ice-cold phosphate buffered saline (PBS) three times, immunoprecipitated proteins were eluted by boiling in 1× Laemmli sample buffer and then subjected to immunoblotting.

binding result [1] | binding result (Mi2β) | Binder | other results
no binding | no binding | B1 | binding result (CoREST): no binding; binding result (MTA1): no binding; binding result (MTA2): no binding
no binding | – | B2 | –
no binding | – | B3 | –
– | no binding | B4 | –
– | – | B5 | binding result (TR4): binds
